These are literature values, as cited in PMC6903724.

In general, Kd refers to a measure of binding affinity in units of concentration.

For this data set, the target named is IL-18 (Homo sapiens) (UniProt Q14116).
IL-18 (Homo sapiens), sequence (Q14116 37-193): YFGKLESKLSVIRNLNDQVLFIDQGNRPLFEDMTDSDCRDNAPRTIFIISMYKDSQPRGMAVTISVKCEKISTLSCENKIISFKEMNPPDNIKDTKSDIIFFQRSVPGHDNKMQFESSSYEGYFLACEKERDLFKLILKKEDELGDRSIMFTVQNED

IL-18BP, sequence (O95998 31-194): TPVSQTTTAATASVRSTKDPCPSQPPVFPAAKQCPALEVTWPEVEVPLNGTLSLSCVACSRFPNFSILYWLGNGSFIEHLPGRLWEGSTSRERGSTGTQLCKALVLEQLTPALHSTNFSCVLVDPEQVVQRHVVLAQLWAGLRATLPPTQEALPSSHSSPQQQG

Consider IL-18BP (from UniProt O95998), for which the equilibrium dissociation constant (Kd) is 0.4 nM.
